Results on eight substances are retold here after US9290540B2, “Angiotensin Type 2 (AT2) receptor agonists and uses thereof” (Lanthio Pep B.V., priority 2010, dated 2016).

Assay [1] has as its system precontracted aorta rings. In words: Vasodilation on phenylephrine-precontracted aorta rings (organ bath). Details: species or system Sprague Dawley rat. As to conditions: sub-nM concentration; peptides added cumulatively 0.1 nM to 1 μM; rings precontracted with 30 nM phenylephrine. Here is the method:
Peptides: KDRVdCIHC (SEQ ID No: 9), and YDRVdCIHC (SEQ ID No: 10) wherein dC stands for D-cysteine were purchased from JPT. Specified pathogen-free male Sprague Dawley rats (SD) (Harlan, Zeist, The Netherlands), weighing […] were used. Prior to the experiment, the animals were housed together with free access of tap water and solid chow (Harlan, Zeist, The Netherlands) in a temperature and humidity controlled room and a 12/12 h light/dark cycle. All protocols described were approved by the University of Groningen Committee for Animal Experimentation.
Thioether-bridged peptides were obtained from the disulfide bridged peptide via base-asisted sulfur extrusion as previously (Galande A K, et al 2003. Biopolymers 71:534-551).
(§1) Vasodilation on precontracted aorta-rings. Arterial rings for organ bath experiments were prepared as described previously (Kluskens L D, et al. 2009. J Pharmacol Exp Ther 328:849-54). Before testing the vasodilating effects of the peptides the rings were precontracted to 50% of their maximum contraction level with 30 nM phenylephrine (PE). The 5,8 thioether bridged peptides KDRV[AIHA]C (SEQ ID No: 3) or YDRV[AIHA]c (SEQ ID No: 5) were added cumulatively in a range of 0.1 nM to 1 μM. Vasodilation data are represented as percentage of relaxation of 30 nM PE contraction.

Another assay has as its target T1, Mas receptor (Rattus norvegicus, UniProt P12526).
T1 construct: vasodilation in precontracted aorta rings from Sprague Dawley rats; from tissue; host or cells: aorta rings of male Sprague Dawley rats
T1 sequence (P12526 1-324): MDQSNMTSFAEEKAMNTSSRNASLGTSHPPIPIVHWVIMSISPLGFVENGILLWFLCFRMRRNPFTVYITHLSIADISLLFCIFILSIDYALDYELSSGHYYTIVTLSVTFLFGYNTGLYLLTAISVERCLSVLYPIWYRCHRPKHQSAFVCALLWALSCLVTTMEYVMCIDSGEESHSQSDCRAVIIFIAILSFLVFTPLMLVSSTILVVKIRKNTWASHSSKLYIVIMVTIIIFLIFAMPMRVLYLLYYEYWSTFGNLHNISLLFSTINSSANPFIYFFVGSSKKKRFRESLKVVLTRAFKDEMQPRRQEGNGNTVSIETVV
In words: Peptide-induced vasodilation of precontracted aorta rings in presence of Mas receptor antagonist D-Pro7-Ang-(1-7). As to conditions: D-Pro7-Ang-(1-7) 0.1 μM, 10 min before 30 nM PE. The arrangement: species or system Sprague Dawley rat. The method, then:
as §1
D-Pro7-ang-(1-7), ang-(1-7) with a D-isomer of proline at position 7, which is a Mas-receptor antagonists, was from JPT and purified by HPLC prior to use. This antagonist was used as in Kluskens et al 2009: 10 min before addition of 30 nM PE at a concentration of 0.1 μM. Other materials and methods were as in example 1.

Assay [2] relates to extracellular-signal-regulated kinase (ERK) phosphorylation in human bronchial epithelial (HBE) cells. In words: Peptide-induced Erk1/Erk2/total Erk phosphorylation in HBE cells. As to conditions: peptide 10^-6 M, 10 min challenge. Type of assay: cell-based. Here is the method:
(§2) Peptides were purchased from JPT: linear DDRVAIHA (SEQ ID No: 4), dKDRVdCIHC (SEQ ID No: 9), KDRVdCIHC (SEQ ID No: 9), DDRVdCIHC (SEQ ID No: 11), IDRVdCIHC (SEQ ID No: 12), NDRVdCIHC (SEQ ID No: 13), SDRVdCIHC (SEQ ID No: 14), in which dK stands for D-lysine and dC stands for D-cysteine. The AT2 receptor antagonist PD123319 was from Axon Medchem. Studies were performed using the immortal human bronchial epithelial cell line HBE (Cozens A L, et al. 1994 CFTR expression and chloride secretion in polarized immortal human bronchial epithelial cells. Am J Respir Cell Mol Biol 10:38-47). All culture media and supplements, multiwell plates and flasks were from PAA.
(§3) Cell culture. Multi-well plates received 1 ml from a coating solution (for 112 ml: F12 medium 100 ml; bovine serum albumin 10 ml (1 mg/ml); collagen I, Bovine 1 ml (3 mg/ml); human fibronectin 1 ml (1 mg/ml)) and were incubated for 6 hours at 37° C. and 5% CO2. Subsequently the coating solution was discarded and the plates were dried for 2 hours in the laminar flow cabinet. In each 12 well plate 8.10^4 HBE cells were seeded per well followed by incubation for 24 hours at 37° C. and 5% CO2. Cell culture medium was prepared by adding 432.2 ml MEM 199 basic medium to 50 ml […] FCS and 5 ml L-Glutamin (200 mM), 10 ml Penicillin/Streptomycin (10.000 units/ml/10 mg/ml) and 2.8 ml Gentamycin (10 mg/ml). At 85-90% confluency medium was replaced by medium without FCS and growth factors followed by again 24 hours incubation at 37° C. and 5% CO2.
Erk1 and Erk2 phosphorylation. The medium was removed from each well and was washed once with HBS buffer without calcium and magnesium. The capacity of peptide at 10^−6 M was tested after 20 min preincubation with either 10^−6 M of PD123319 or concomitant controls, followed by washing. Challenges and concomitant controls were performed at 1 ml/well during 10 min. All samples were tested in triplicate. After the challenge 150 μl RIPA buffer (RIPA, TBS, 1% Nonidet P-40, 0.5% sodium deoxycholate, 0.1% SDS, 0.004% sodium azide, 1% PMSF (2 mM final concentration), 1% sodium orthovanadate (1 mM final concentration) and 1% protease inhibitor cocktail) was added to each well. The plates were incubated for 15 minutes at 4° C. The lysed cells were scraped from the surface. […] The supernatant was transferred into new cups and of a 5 al sample the total protein content was determined via the DC protein assay according to lowry (Bio-Rad), with BSA used as calibration protein. […] The phosphorylated Erk proteins and GAPDH were stained with BCIP/NBT and quantified relative to GAPDH and total Erk using TotalLab software. Alternatively, total Erk phosphorylation was measured after permeabilization of the non-detached cells. […]

Another assay deals with T2, AT2 receptor (Homo sapiens, UniProt P50052).
T2 construct: stimulate extracellular-signal-regulated kinase (ERK) phosphorylation in human bronchial epithelial (HBE) cells; endogenous in cells; host or cells: HBE (immortal human bronchial epithelial cell line)
T2 sequence (P50052 1-363): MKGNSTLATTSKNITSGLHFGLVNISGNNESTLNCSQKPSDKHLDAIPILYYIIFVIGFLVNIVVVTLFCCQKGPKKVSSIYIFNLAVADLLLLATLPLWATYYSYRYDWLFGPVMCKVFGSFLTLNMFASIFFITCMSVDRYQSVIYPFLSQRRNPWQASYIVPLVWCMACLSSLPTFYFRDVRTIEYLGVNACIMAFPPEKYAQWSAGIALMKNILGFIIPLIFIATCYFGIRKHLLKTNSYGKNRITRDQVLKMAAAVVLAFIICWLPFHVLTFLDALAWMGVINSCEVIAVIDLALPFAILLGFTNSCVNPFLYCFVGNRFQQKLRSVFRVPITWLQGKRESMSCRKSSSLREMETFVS
In words: Inhibition of peptide-induced ERK phosphorylation by AT2 receptor antagonist PD123319 in HBE cells. As to conditions: for inhibition of peptide-induced ERK1 phosphorylation by PD123319 / inhibition of peptide-induced ERK phosphorylation (ERK1 and ERK2) by PD123319 / inhibition of peptide-induced (total) Erk phosphorylation by PD123319 / inhibition of peptide-induced ERK2 phosphorylation by PD123319: 20 min preincubation with 10^-6 M PD123319, peptide 10^-6 M. The format is cell-based. The method, then: as §2, §3
Erk1 and Erk2 phosphorylation. The medium was removed from each well and was washed once with HBS buffer without calcium and magnesium. The capacity of peptide at 10^−6 M was tested after 20 min preincubation with either 10^−6 M of PD123319 or concomitant controls, followed by washing. Challenges and concomitant controls were performed at 1 ml/well during 10 min. All samples were tested in triplicate. After the challenge 150 μl RIPA buffer (RIPA, TBS, 1% Nonidet P-40, 0.5% sodium deoxycholate, 0.1% SDS, 0.004% sodium azide, 1% PMSF (2 mM final concentration), 1% sodium orthovanadate (1 mM final concentration) and 1% protease inhibitor cocktail) was added to each well. The plates were incubated for 15 minutes at 4° C. The lysed cells were scraped from the surface. The lysate was transferred to 1.5 ml eppendorf cups and centrifuged 5 minutes at 12.700×g to pellet the cell debris. The supernatant was transferred into new cups and of a 5 al sample the total protein content was determined via the DC protein assay according to lowry (Bio-Rad), with BSA used as calibration protein. Protein was separated on gel and blotted with p-ERK mouse monoclonal IgG2a and mouse GAPDH anti-rat IgG1 antibodies and as a second antibody goat anti-mouse IgG-AP. The phosphorylated Erk proteins and GAPDH were stained with BCIP/NBT and quantified relative to GAPDH and total Erk using TotalLab software. Alternatively, total Erk phosphorylation was measured after permeabilization of the non-detached cells.
In this example it is investigated whether or not cAng-(1-7) analogs with an N-terminal extension of two amino acids stimulate the AT2 receptor.
Thioether bridged peptide synthesis and cell culture and measurement of Erk1- and total Erk phosphorylation were essentially as in example 2.

Bridges are numbered along the chain shown (N, C = ends). Where no end group is shown, it is not given here. [ ]: non-standard residue; d: D form.

“Tyr-Asp-Arg-Val-Abu/Ala-Ile-His-Abu/Ala (YDRVAIHA; not fully specified; thioether bridge (lanthionine); cyclic AT2 receptor antagonist) [YcAng-(1-7), cAng-(1-7) N-terminally extended with Tyr]”: the “vasodilation of precontracted aorta rings (percentage of relaxation of 30 nM PE contraction)” value in assay [1] is recorded as “significant vasodilating capacity”. The “inhibition of peptide-induced vasodilation by Mas receptor antagonist D-Pro7” value with Mas receptor is reported as “does not inhibit”.
Take “Asp-Asp-Arg-Val-Abu/Ala-Ile-His-Abu/Ala (DDRVAIHA; not fully specified; thioether bridge (lanthionine); cyclic AT2 receptor antagonist) [DcAng-(1-7)]”: the “peptide-induced Erk1 phosphorylation” value in assay [2] is on record as “induced Erk1 phosphorylation”. In addition, in the assay with AT2 receptor, the “inhibition of peptide-induced ERK1 phosphorylation by PD123319” value is given as “inhibited”; the “inhibition of peptide-induced ERK phosphorylation (ERK1 and ERK2) by PD123319” value (from here on “inhibition … (ERK1 and ERK2) by PD123319”) was “complete”.
Consider “DDRVAIHA (cyclic AT2 receptor antagonist) [reference compound]”, for which, in assay [2], the “peptide-induced (total) Erk phosphorylation” value is “induced Erk phosphorylation”. The “inhibition of peptide-induced (total) Erk phosphorylation by PD123319” value in the assay with AT2 receptor is “could not be inhibited”.
Consider “Asn-Asp-Arg-Val-Abu/Ala-Ile-His-Abu/Ala (NDRVAIHA; not fully specified; thioether bridge (lanthionine); cyclic AT2 receptor antagonist) [N-cAng(1-7)]”, for which, in the assay with AT2 receptor, the “interaction with / stimulation of the AT2 receptor (conclusion from PD123319 sensitivity of ERK phosphorylation)” value is given as “did not or hardly interact with the AT2 receptor”, the “inhibition of peptide-induced ERK1 phosphorylation by PD123319” value is “less” and the “inhibition of peptide-induced ERK2 phosphorylation by PD123319” value is “less or absent”.
In the case of “IDDRVAIHA (not fully specified) [reference compound]”, in assay [2], the “peptide-induced (total) Erk phosphorylation” value is reported as “induced Erk phosphorylation”. Moreover, in the assay with AT2 receptor, the “inhibition of peptide-induced (total) Erk phosphorylation by PD123319” value is “no inhibition at all”.
For the substance “Ile-Asp-Arg-Val-Abu/Ala-Ile-His-Abu/Ala (IDRVAIHA; not fully specified; thioether bridge (lanthionine); cyclic AT2 receptor antagonist) [IcAng-(1-7)]”, the “peptide-induced Erk1 phosphorylation” value in assay [2] is on record as “induced Erk1 phosphorylation”. Moreover, in the assay with AT2 receptor, the “inhibition of peptide-induced ERK1 phosphorylation by PD123319” value was “inhibited”; the “inhibition … (ERK1 and ERK2) by PD123319” value is reported as “complete”.
Regarding “ScAng-(1-7): thioether bridged cAng-(1-7) with Ser at position -1, made from SDRVdCIHC (SEQ ID No: 14) (SDRV[dC]IHC; bridge 5-8; not fully specified (bridges); also: thioether formed from the disulfide precursor by sulfur extrusion)”, in the assay with AT2 receptor, the “interaction with / stimulation of the AT2 receptor (conclusion from PD123319 sensitivity of ERK phosphorylation)” value is “did not or hardly interact with the AT2 receptor”, the “inhibition of peptide-induced ERK1 phosphorylation by PD123319” value is recorded as “less” and the “inhibition of peptide-induced ERK2 phosphorylation by PD123319” value was “did not affect”. Moreover, the “inhibition of peptide-induced ERK2 phosphorylation by PD123319” value with AT2 receptor (listed as Ser) was “less or absent”.
Turning to “Lys-Asp-Arg-Val-Abu/Ala-Ile-His-Abu/Ala (KDRVAIHA; not fully specified; thioether bridge (lanthionine); cyclic AT2 receptor antagonist) [KcAng-(1-7), cAng-(1-7) N-terminally extended with Lys]”, the “vasodilation of precontracted aorta rings (percentage of relaxation of 30 nM PE contraction)” value in assay [1] is recorded as “significant vasodilating capacity”. The “inhibition … (ERK1 and ERK2) by PD123319” value with AT2 receptor is given as “complete”. Besides, the “inhibition of peptide-induced vasodilation by Mas receptor antagonist D-Pro7” value in the assay with Mas receptor is “does not inhibit”.
